Measured values as given in patent US20170015708A1 (BIOKINE THERAPEUTICS, published 2017).

Assays:
Experiment in all cases: cell-based or functional assay
[1] = target: T1, RANTES (human) (human, UniProt P13501 24-91)
T1 sequence (looked up): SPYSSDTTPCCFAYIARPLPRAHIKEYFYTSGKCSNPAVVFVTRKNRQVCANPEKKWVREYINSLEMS

[2] = target: T2, I-TAC (human) (human, UniProt O14625 22-94)
T2 sequence (looked up): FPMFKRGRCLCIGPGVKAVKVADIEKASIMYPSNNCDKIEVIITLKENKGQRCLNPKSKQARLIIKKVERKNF

[3] = target: T3, MIG (human) (human, UniProt Q07325 23-125)
T3 sequence (looked up): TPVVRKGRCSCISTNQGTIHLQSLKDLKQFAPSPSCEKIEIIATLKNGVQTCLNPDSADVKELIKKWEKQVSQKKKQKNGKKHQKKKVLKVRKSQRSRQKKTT

[4] = target: MCP-1 (human) (human, UniProt P13500 24-99)
Sequence of MCP-1 (human) (P13500 24-99 limits assumed): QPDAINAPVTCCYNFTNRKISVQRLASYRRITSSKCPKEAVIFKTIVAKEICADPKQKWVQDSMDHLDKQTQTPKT

[5] = target: T4, IP-10 (human) (human, UniProt P02778 22-98)
T4 sequence (looked up): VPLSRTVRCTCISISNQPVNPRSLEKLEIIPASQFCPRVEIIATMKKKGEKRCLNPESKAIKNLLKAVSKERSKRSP

[6] = target: Eotaxin (human) (human, UniProt P51671 24-97)
Sequence of Eotaxin (human) (P51671 24-97 limits assumed): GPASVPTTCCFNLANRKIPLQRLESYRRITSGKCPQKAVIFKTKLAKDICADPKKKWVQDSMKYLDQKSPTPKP

Measured: Inhibition of chemokine-dependent T cell adhesion to VCAM-1 (++ = 100% inhibition)

LDYPIPQTVLHH [BKT-P46 peptide]
100 % inhibition: [1] | [2] | [3] | [4]

SIPSHSIHSAKA [BKT-P2 peptide]
not listed: [3]
100 % inhibition: all other assays above
